Kd and RU bound data for three substances are collected here from patent US20100303724A1.

Test [1] has as its target biotin-collagelin. Kind of test: SPR; biotin-collagelin on a streptavidin sensorchip, IgG 1.25 to 10 µg/mL. For orientation: SPR reads the build-up and loss of mass on a sensor chip optically.
Test [2] has as its target biotin-collagelin. Kind of test: SPR.
Test [3] concerns the target biotin-collagelin. The experiment in a line: SPR; collagen injected on biotin-collagelin on a streptavidin sensorchip.
Chain of biotin-collagelin (peptide, as listed by the source): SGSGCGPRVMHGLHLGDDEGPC

Take “anti-human platelet GPVI 9O12.2 IgG (antibody)”: the equilibrium dissociation constant (Kd) in test [1] was found to be 1 µM.
Substance murine laminin (Gibco) came in with a Kd in test [2] of 18.3 µM.
Take “type I equine fibrillar collagen (Collagen Horm, Nycomed)”: in test [3], the RU bound was determined as 10 RU.

For orientation: Kd means the constant that tells how readily two partners part at equilibrium. Higher therefore signals lower affinity.
